Reference: patent publication US20080267967A1 (TRILLIUM THERAPEUTICS, published 2008)

What was measured:
[1] = target: T1, CD200 receptor (CD200R) on primary mouse cells, isoform not stated (mouse) (UniProt Q9ES57); experiment: cell-based or functional assay
T1 sequence: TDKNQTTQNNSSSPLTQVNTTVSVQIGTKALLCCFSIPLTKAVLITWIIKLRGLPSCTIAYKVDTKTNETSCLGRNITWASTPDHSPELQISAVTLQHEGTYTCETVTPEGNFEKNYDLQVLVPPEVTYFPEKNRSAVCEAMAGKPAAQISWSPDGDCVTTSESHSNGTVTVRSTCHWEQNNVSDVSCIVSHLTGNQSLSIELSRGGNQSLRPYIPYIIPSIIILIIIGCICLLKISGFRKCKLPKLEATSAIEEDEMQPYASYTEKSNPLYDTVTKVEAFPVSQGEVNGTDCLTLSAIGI

[2] = target: T2, murine CD200R2a (murine, UniProt Q6XJV6 25-249); experiment: FACS, FITC-CD200Fc on COS cells transiently transfected with CD200R isoform cDNA
T2 sequence: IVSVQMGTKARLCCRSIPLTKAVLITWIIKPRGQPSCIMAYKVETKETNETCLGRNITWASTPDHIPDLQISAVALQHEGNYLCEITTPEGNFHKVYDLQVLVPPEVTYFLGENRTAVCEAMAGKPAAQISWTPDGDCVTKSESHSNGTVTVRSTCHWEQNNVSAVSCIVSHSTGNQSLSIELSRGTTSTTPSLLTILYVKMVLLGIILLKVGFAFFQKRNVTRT
Excerpt: (§1) In order to assess whether the various CD200R isoforms described could all serve as counter-igands for CD200, an immunoadhesin (CD200Fc) incorporating the extracellular domain of CD200 linked to a murine IgG2a Fc region as described (51) was used. CD200Fc was coupled to FITC and the inventors then examined by FACS analysis binding of FITC-labeled CD200Fc to COS cells transiently transfected with pBK vectors encoding cDNAs for the various CD200R isoforms. As control the inventors examined binding to COS cells transduced with empty pBK vectors. COS cells expressing the different CD200R isoforms all bound FITC-CD200Fc.

[3] = target: T3, murine CD200R3a (murine, UniProt Q5UKY4 26-272); experiment: as above
T3 sequence: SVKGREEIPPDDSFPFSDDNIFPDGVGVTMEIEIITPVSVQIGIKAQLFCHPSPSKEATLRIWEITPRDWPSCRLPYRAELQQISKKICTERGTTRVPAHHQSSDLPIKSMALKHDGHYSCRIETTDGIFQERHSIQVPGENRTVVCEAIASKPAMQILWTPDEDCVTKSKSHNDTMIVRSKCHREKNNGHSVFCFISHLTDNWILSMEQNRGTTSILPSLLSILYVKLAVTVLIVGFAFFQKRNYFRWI
Excerpt: as §1

B1: mouse CD200 on dendritic cells (ligand, UniProt O54901 31-278, looked up)
chain: QVEVVTQDERKALHTTASLRCSLKTSQEPLIVTWQKKKAVSPENMVTYSKTHGVVIQPAYKDRINVTELGLWNSSITFWNTTLEDEGCYMCLFNTFGSQKVSGTACLTLYVQPIVHLHYNYFEDHLNITCSATARPAPAISWKGTGTGIENSTESHFHSNGTTSVTSILRVKDPKTQVGKEVICQVLYLGNVIDYKQSLDKGFWFSVPLLLSIVSLVILLVLISILLYWKRHRNQERGESSQGMQRMK
With B1 the IFNγ in MLC at 40 hrs; CD200R+ cells + CD200+ DC [1] was 0.145 ng/mL, the IFNγ in MLC; CD200R+ cells + CD200+ DC, no mAb [1] was 0.17 ng/mL and the IL-2 in MLC at 40 hrs; CD200R+ cells + CD200+ DC [1] was 0.16 ng/mL. For the same binder, the IL-2 in MLC; CD200R+ cells + CD200+ DC, no mAb [1] was 0.165 ng/mL, the IL-4 in MLC at 40 hrs; CD200R+ cells + CD200+ DC [1] was 0.255 ng/mL and the IL-10 in MLC at 40 hrs; CD200R+ cells + CD200+ DC [1] was 0.225 ng/mL.

B2: CD200Fc immunoadhesin (extracellular domain of CD200 linked to a murine IgG2a Fc region) (Fc fusion, mouse, UniProt O54901 31-232, looked up)
chain: QVEVVTQDERKALHTTASLRCSLKTSQEPLIVTWQKKKAVSPENMVTYSKTHGVVIQPAYKDRINVTELGLWNSSITFWNTTLEDEGCYMCLFNTFGSQKVSGTACLTLYVQPIVHLHYNYFEDHLNITCSATARPAPAISWKGTGTGIENSTESHFHSNGTTSVTSILRVKDPKTQVGKEVICQVLYLGNVIDYKQSLDKG
modifications: FITC-labelled in the binding assays
notes: extracellular domain; Made in a baculovirus system in Sf insect cells; also called FITC-CD200Fc; FITC-CD200:Fc; not shown: murine IgG2a Fc region; the ch
B2: binds [2]; binds [3].
